Results from the supplement of paper PMC7125110.
± gives the standard error. For some assays here: Fewer inactive variants are shown than the library holds.

B1: glmS ribozyme (parent)
chain: AUAAAAGCGCCAGAACUACAGAAAUGUAGUUGACGAGGAGGAGGUUUAUCGAAUUUUCGGCGGAUGCCUCCAAA

Experiments:
Details in all cases: with glucosamine-6-phosphate
[1] = variants of: B1; experiment: kcat; higher = faster cleavage; RNA array
How it was run: (§1)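 Sequenced MiSeq chips were the platform: E. coli RNA polymerase transcribed barcoded ribozyme variants on them in situ, and a hybridised Cy3 probe tracked these at 37 °C. After glucosamine-6-phosphate (40 μM to 10 mM) in HEPES/KCl/Mg(OAc)2 buffer was flowed in, tiles were imaged over ~14 h. Signals normalised to baseline and to non-cleaving reference variants were reduced to per-tile medians and fit to one- or two-exponential decays to obtain kobs. kcat and KM were derived through weighted Michaelis–Menten fits across concentrations.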

[2] = variants of: B1; experiment: KM; higher = weaker cofactor use; RNA array
How it was run: as §1

[3] = variants of: B1; experiment: self-cleavage kobs at 640 uM GlcN6P; higher = faster cleavage; RNA array
How it was run: as §1

[4] = variants of: B1; experiment: self-cleavage kobs at 2500 uM GlcN6P; higher = faster cleavage; RNA array
How it was run: as §1

[5] = variants of: B1; experiment: self-cleavage kobs at 10000 uM GlcN6P; higher = faster cleavage; RNA array
How it was run: as §1

[6] = variants of: B1; experiment: self-cleavage kobs at 40 uM GlcN6P; higher = faster cleavage; RNA array
How it was run: as §1

[7] = variants of: B1; experiment: self-cleavage kobs at 160 uM GlcN6P; higher = faster cleavage; RNA array
How it was run: as §1

Row | Variant | kcat [1] | KM [2] | self-cleavage kobs at 640 uM GlcN6P [3] | self-cleavage kobs at 2500 uM GlcN6P [4] | self-cleavage kobs at 10000 uM GlcN6P [5] | self-cleavage kobs at 40 uM GlcN6P [6] | self-cleavage kobs at 160 uM GlcN6P [7]
1 | G40A U45C C70U | 0.000583 ± 6.9e-05 s⁻¹ | 2900 ± 550 µM | 0.000105 ± 2.7e-05 s⁻¹ | 0.000288 ± 8e-05 s⁻¹ | 0.000432 ± 0.00015 s⁻¹ | – | –
2 | U30G U65C | 0.000117 ± 2.1e-05 s⁻¹ | – | 4.91e-05 ± 1.7e-05 s⁻¹ | 0.000122 ± 2.6e-05 s⁻¹ | 9.72e-05 ± 2.2e-05 s⁻¹ | – | –
3 | A33C U55G | 0.000433 ± 0.00012 s⁻¹ | 2970 ± 1400 µM | 9.32e-05 ± 1.6e-05 s⁻¹ | 0.000163 ± 2.8e-05 s⁻¹ | 0.000384 ± 6.3e-05 s⁻¹ | – | –
4 | A33C U57A | 2.16e-05 ± 4.2e-06 s⁻¹ | – | – | – | – | – | –
5 | A12U A48U C70A | 5.26e-05 ± 1.7e-05 s⁻¹ | – | – | 6.36e-05 ± 2e-05 s⁻¹ | 4.16e-05 ± 1.5e-05 s⁻¹ | – | –
6 | U55C C67G | < 1e-05 s⁻¹ | – | – | – | – | < 1e-05 s⁻¹ | –
7 | C11A U55G | 0.000167 ± 5.3e-05 s⁻¹ | – | 3.28e-05 ± 1.1e-05 s⁻¹ | 0.000159 ± 2.4e-05 s⁻¹ | 0.000125 ± 2.1e-05 s⁻¹ | – | –
8 | G37A U45G C70G | 1.07e-05 ± 4e-06 s⁻¹ | – | – | – | – | – | –
9 | A64C C68U | < 1e-05 s⁻¹ | – | – | – | < 1e-05 s⁻¹ | < 1e-05 s⁻¹ | < 1e-05 s⁻¹
10 | U57G C67U | 3.05e-05 ± 1e-05 s⁻¹ | – | – | 4.91e-05 ± 1.5e-05 s⁻¹ | 2.19e-05 ± 1e-05 s⁻¹ | – | –
11 | C16G C61A | 1.02e-05 ± 1.1e-06 s⁻¹ | – | – | – | – | – | –
12 | A12G G41C | 0.000171 ± 2.4e-05 s⁻¹ | – | – | 3.14e-05 ± 1.1e-05 s⁻¹ | 8.02e-05 ± 1.1e-05 s⁻¹ | < 1e-05 s⁻¹ | –
13 | U57A C70A | 1.98e-05 ± 3.5e-06 s⁻¹ | – | – | – | – | – | –
14 | C11G G59A | 0.000401 ± 1.7e-05 s⁻¹ | 8670 ± 560 µM | 2.81e-05 ± 1e-05 s⁻¹ | 8.92e-05 ± 1.8e-05 s⁻¹ | 0.000215 ± 3.6e-05 s⁻¹ | – | –
15 | C11U A64G | 0.00227 ± 0.00061 s⁻¹ | 1370 ± 580 µM | 0.000741 ± 6.4e-05 s⁻¹ | 0.00108 ± 0.00014 s⁻¹ | 0.00247 ± 0.00021 s⁻¹ | 8.94e-05 ± 9.3e-06 s⁻¹ | 0.0002 ± 2.5e-05 s⁻¹
16 | G29C U30A | 0.000322 ± 1.4e-05 s⁻¹ | 2880 ± 230 µM | 5.97e-05 ± 1.4e-05 s⁻¹ | 0.000141 ± 3.8e-05 s⁻¹ | 0.000253 ± 4.6e-05 s⁻¹ | – | –
17 | A53G C68G | 0.000144 ± 2.6e-05 s⁻¹ | – | 8.52e-05 ± 9.4e-06 s⁻¹ | 0.00014 ± 1.5e-05 s⁻¹ | – | – | 5.82e-05 ± 1e-05 s⁻¹
18 | G9A G37U C70G | 1.52e-05 ± 2.5e-06 s⁻¹ | – | – | < 1e-05 s⁻¹ | – | – | –
19 | A12C C58G | 0.0002 ± 2.6e-05 s⁻¹ | 1730 ± 640 µM | 6.55e-05 ± 1.8e-05 s⁻¹ | 0.000106 ± 1.8e-05 s⁻¹ | 0.000177 ± 2.2e-05 s⁻¹ | – | –
20 | A14C U31G G40C | 0.00179 ± 0.00038 s⁻¹ | 1560 ± 520 µM | 0.000477 ± 9.7e-05 s⁻¹ | 0.00097 ± 0.00023 s⁻¹ | 0.00184 ± 0.00041 s⁻¹ | 5.2e-05 ± 1.1e-05 s⁻¹ | –

Row | Variant | kcat [1] | KM [2] | self-cleavage kobs at 640 uM GlcN6P [3] | self-cleavage kobs at 2500 uM GlcN6P [4] | self-cleavage kobs at 10000 uM GlcN6P [5] | self-cleavage kobs at 40 uM GlcN6P [6] | self-cleavage kobs at 160 uM GlcN6P [7]
21 | C61A C67U C71U | 5.2e-05 ± 2.5e-05 s⁻¹ | – | 8.57e-05 ± 2.8e-05 s⁻¹ | – | – | – | –
22 | A14U A36C C50U | 1.43e-05 ± 5.6e-06 s⁻¹ | – | – | – | – | – | –
23 | A14U C67U | 0.00362 ± 0.00099 s⁻¹ | 2860 ± 930 µM | 0.000591 ± 7.1e-05 s⁻¹ | 0.00164 ± 0.00034 s⁻¹ | 0.0031 ± 0.00053 s⁻¹ | 6.23e-05 ± 7e-06 s⁻¹ | 0.000181 ± 2e-05 s⁻¹
24 | A15C G32A | 0.00227 ± 0.0006 s⁻¹ | 3610 ± 1400 µM | 0.000293 ± 6.8e-05 s⁻¹ | 0.0012 ± 0.00025 s⁻¹ | 0.00157 ± 0.00034 s⁻¹ | 4.19e-05 ± 1.9e-05 s⁻¹ | 9.83e-05 ± 3.7e-05 s⁻¹
25 | A14U C50G C68A | 7.35e-05 ± 2e-05 s⁻¹ | – | 0.000122 ± 2.5e-05 s⁻¹ | 7.66e-05 ± 2.9e-05 s⁻¹ | 5.56e-05 ± 1.5e-05 s⁻¹ | 5.1e-05 ± 1.3e-05 s⁻¹ | –
26 | A14C U56C | 0.000932 ± 0.00029 s⁻¹ | 4280 ± 2000 µM | 0.00014 ± 1.8e-05 s⁻¹ | 0.000275 ± 4.5e-05 s⁻¹ | 0.000754 ± 0.00012 s⁻¹ | – | 3.09e-05 ± 1.5e-05 s⁻¹
27 | A12U U69G C70G | 2.63e-05 ± 1.3e-05 s⁻¹ | – | – | – | – | – | < 1e-05 s⁻¹
28 | G29U G38A G59A C67A U69G | 2.86e-05 ± 6.2e-06 s⁻¹ | – | – | – | – | – | –
29 | G40A A52U | 0.000228 ± 7.9e-05 s⁻¹ | – | – | 9.49e-05 ± 1.5e-05 s⁻¹ | 0.000146 ± 2.3e-05 s⁻¹ | – | –
30 | G60C C71A | < 1e-05 s⁻¹ | – | – | – | – | < 1e-05 s⁻¹ | –
31 | A12U U56G | 0.0516 ± 0.013 s⁻¹ | 1320 ± 390 µM | 0.0197 ± 0.0057 s⁻¹ | – | 0.0461 ± 0.011 s⁻¹ | 0.00172 ± 0.0002 s⁻¹ | 0.00468 ± 0.00073 s⁻¹
32 | G44U U47G | 1.56e-05 ± 2.1e-07 s⁻¹ | 2560 ± 150 µM | – | – | – | – | –
33 | G13U A15C | 0.000268 ± 2.8e-05 s⁻¹ | 2790 ± 550 µM | 4.71e-05 ± 7.8e-06 s⁻¹ | 0.000142 ± 1.9e-05 s⁻¹ | 0.000202 ± 2.4e-05 s⁻¹ | – | –
34 | G35A G37A G44U U49G C67G | < 1e-05 s⁻¹ | – | – | < 1e-05 s⁻¹ | – | – | –
35 | A39U C61U | < 1e-05 s⁻¹ | – | – | – | – | – | –
36 | G37A G44U A53U | 9.52e-05 ± 3e-05 s⁻¹ | – | – | 6.43e-05 ± 1.9e-05 s⁻¹ | 7.31e-05 ± 2.3e-05 s⁻¹ | – | –
37 | A42U G43U A52G | < 1e-05 s⁻¹ | – | – | < 1e-05 s⁻¹ | – | – | –
38 | C16U U65G | 0.0044 ± 0.00062 s⁻¹ | 4300 ± 840 µM | 0.000544 ± 7.2e-05 s⁻¹ | 0.00147 ± 0.00018 s⁻¹ | 0.0032 ± 0.00028 s⁻¹ | 5.04e-05 ± 6.5e-06 s⁻¹ | 0.000151 ± 1.7e-05 s⁻¹
39 | G13C C58A | 0.000354 ± 6.9e-05 s⁻¹ | 7610 ± 2700 µM | 4.16e-05 ± 9.2e-06 s⁻¹ | 8e-05 ± 9.7e-06 s⁻¹ | 0.000203 ± 1.3e-05 s⁻¹ | – | –
40 | G32A U47C | 0.000343 ± 5.5e-05 s⁻¹ | 2450 ± 760 µM | 7.19e-05 ± 1.5e-05 s⁻¹ | 0.000185 ± 2.3e-05 s⁻¹ | 0.000258 ± 4.4e-05 s⁻¹ | – | –
